From the Immune Epitope Database (IEDB)

Target: HLA-A*02:01
Experiment: IEDB peptide-MHC binding, cellular MHC/competitive/fluorescence; ≥ and ≤ were set here for values at or beyond the usual limits of such assays
Conditions: source organism: Vaccinia virus WR

Q: Which IC50 does the source give for IVIYPNFSKA here?
A: Its IC50 is 9.76 µM.

Q: Which IC50 does the source give for IIYNANKLI here?
A: The IC50 was 17 µM.

Q: How did the IC50 turn out when MLYQLLEAV was run?
A: The IC50 was 14.9 µM.

Q: With IINRDIIVI as the sequence, how does the IC50 read?
A: The IC50 was 10.8 µM.

Q: Which IC50 does the source give for IMKTPGNTDA here?
A: The IC50 was 9.42 µM.

Q: How did the IC50 turn out when VTNKEGVKI was run?
A: Its IC50 is 57.4 µM.

Q: With GAIKCEGLDV as the sequence, how does the IC50 read?
A: The IC50 was 49 µM.

Q: Which IC50 does the source give for KQQKKCKYCI here?
A: The IC50 was 56.4 µM.

Q: With IIIVALTIM as the sequence, how does the IC50 read?
A: The IC50 was 9.64 µM.

Q: Which IC50 does the source give for DANVVSSSTI here?
A: The IC50 was ≥ 70 µM.

Q: For SIDRLSLNRT, which IC50 is on record?
A: The IC50 was 5.1 µM.

Q: GAMVEYVST was tested. Which IC50 did it give?
A: The IC50 was 24.8 µM.

Q: How did the IC50 turn out when TASSDSLQT was run?
A: The IC50 was 54.9 µM.

Q: Which IC50 does the source give for HLRDQSIKI here?
A: The IC50 was 7.25 µM.

Q: ETVSTIDGRI was tested. Which IC50 did it give?
A: Its IC50 is ≥ 70 µM.

Q: With TLQKVLHVT as the sequence, how does the IC50 read?
A: Its IC50 is 5.79 µM.

Q: How did the IC50 turn out when YIRNTLTEKI was run?
A: The IC50 was 38.4 µM.

Q: For STFSIGGVI, which IC50 is on record?
A: The IC50 was 23.5 µM.

Q: With YIQETIRSDT as the sequence, how does the IC50 read?
A: Its IC50 is 39.3 µM.

Q: For IQQLYEFRKV, which IC50 is on record?
A: The IC50 was 8.74 µM.

Q: For NIIMKTPGNT, which IC50 is on record?
A: Its IC50 is 8.14 µM.

Q: For IVISPMGKLT, which IC50 is on record?
A: The IC50 was 52.6 µM.

Q: With PVTEDDYKFL as the sequence, how does the IC50 read?
A: The IC50 was 26.7 µM.

Q: DINSDNSNI was tested. Which IC50 did it give?
A: Its IC50 is 24.8 µM.

Q: LVIVSDGPPT was tested. Which IC50 did it give?
A: Its IC50 is ≥ 70 µM.

Q: How did the IC50 turn out when SATESDAIRT was run?
A: The IC50 was ≥ 70 µM.

Q: For PITIENALV, which IC50 is on record?
A: Its IC50 is ≥ 70 µM.

Q: With NAECQPLQL as the sequence, how does the IC50 read?
A: The IC50 was 14.3 µM.

Q: LVNLIQAKT was tested. Which IC50 did it give?
A: The IC50 was 44.2 µM.

Q: Which IC50 does the source give for DAYNIADAA here?
A: The IC50 was ≥ 70 µM.

Q: For IIERSKKFI, which IC50 is on record?
A: The IC50 was 5.31 µM.

Q: LVNAIIDSA was tested. Which IC50 did it give?
A: The IC50 was 15.6 µM.

Q: How did the IC50 turn out when QQALSSFHTT was run?
A: Its IC50 is 29.1 µM.

Q: Which IC50 does the source give for VQLVDAIDNI here?
A: Its IC50 is 13.3 µM.

Q: How did the IC50 turn out when MQRISGSNIV was run?
A: Its IC50 is 13 µM.

Q: How did the IC50 turn out when CVDNHLGAT was run?
A: Its IC50 is 52.1 µM.

Q: MASLLYLIL was tested. Which IC50 did it give?
A: Its IC50 is 9.14 µM.

Q: How did the IC50 turn out when FVKRLGPGT was run?
A: The IC50 was 39.7 µM.

Q: Which IC50 does the source give for PVLPICVRT here?
A: The IC50 was 7.3 µM.

Q: DMPSLSNGLI was tested. Which IC50 did it give?
A: The IC50 was 43 µM.

Q: Which IC50 does the source give for KIKVTAASPM here?
A: The IC50 was ≥ 70 µM.

Q: For PVSKVKSCL, which IC50 is on record?
A: Its IC50 is 14.3 µM.

Q: How did the IC50 turn out when VISLLSMITM was run?
A: The IC50 was 10.8 µM.

Q: For SINVDSTDEL, which IC50 is on record?
A: Its IC50 is 60.3 µM.

Q: Which IC50 does the source give for QQHPIVVLDA here?
A: Its IC50 is 14.5 µM.

Q: With MIKVGNCDET as the sequence, how does the IC50 read?
A: Its IC50 is ≥ 70 µM.

Q: How did the IC50 turn out when LISMYCSKT was run?
A: The IC50 was 12.5 µM.

Q: How did the IC50 turn out when VALTIMGVI was run?
A: Its IC50 is 8.94 µM.

Q: VANVVNHVLT was tested. Which IC50 did it give?
A: The IC50 was ≥ 70 µM.

Q: How did the IC50 turn out when SLSKRERQL was run?
A: Its IC50 is 5.77 µM.

Q: How did the IC50 turn out when TVELMNLKEL was run?
A: The IC50 was 50.6 µM.

Q: For RTNRNELFQL, which IC50 is on record?
A: The IC50 was 31.2 µM.

Q: How did the IC50 turn out when KTKYYKFDYI was run?
A: The IC50 was 51.5 µM.

Q: For SIVVELEPSL, which IC50 is on record?
A: The IC50 was 7.93 µM.

Q: With VVYNPSTMST as the sequence, how does the IC50 read?
A: The IC50 was 57.8 µM.

Q: Which IC50 does the source give for ELPYDENGI here?
A: Its IC50 is 8.48 µM.

Q: With CIRISMVISL as the sequence, how does the IC50 read?
A: Its IC50 is 6.22 µM.

Q: Which IC50 does the source give for PTNKLQAAVM here?
A: Its IC50 is 29.5 µM.

Q: How did the IC50 turn out when ELMPIRTDTT was run?
A: Its IC50 is 11.7 µM.

Q: How did the IC50 turn out when SVEKVGINLV was run?
A: The IC50 was 50 µM.

Q: How did the IC50 turn out when GASYISCTA was run?
A: Its IC50 is 7.35 µM.

Q: For SQSTDIVCET, which IC50 is on record?
A: The IC50 was 26 µM.

Q: With ATYHIIIVA as the sequence, how does the IC50 read?
A: The IC50 was 6.42 µM.

Q: Which IC50 does the source give for TASGGKVLI here?
A: Its IC50 is 37.2 µM.

Q: With KAMCNTRDT as the sequence, how does the IC50 read?
A: The IC50 was 51.6 µM.

Q: Which IC50 does the source give for STVASAQIHL here?
A: The IC50 was 14.2 µM.

Q: With QISQCQRINM as the sequence, how does the IC50 read?
A: Its IC50 is 19 µM.

Q: With LQKFSFKIAI as the sequence, how does the IC50 read?
A: The IC50 was ≥ 70 µM.

Q: With FIVISPMGKL as the sequence, how does the IC50 read?
A: The IC50 was 20 µM.

Q: How did the IC50 turn out when IQKSSSIDV was run?
A: The IC50 was 15.9 µM.

Q: With DIIDFLEGAL as the sequence, how does the IC50 read?
A: The IC50 was 23.2 µM.

Q: For DQYKFHKLL, which IC50 is on record?
A: Its IC50 is 16 µM.

Q: How did the IC50 turn out when YVGSYASNGI was run?
A: Its IC50 is 15.2 µM.

Q: For EIEEHMRQT, which IC50 is on record?
A: The IC50 was 39 µM.

Q: QLPMEDNSDI was tested. Which IC50 did it give?
A: Its IC50 is 38.5 µM.

Q: For GVSDLISTEI, which IC50 is on record?
A: Its IC50 is 41.8 µM.

Q: Which IC50 does the source give for STLPNKSDV here?
A: The IC50 was ≥ 70 µM.

Q: How did the IC50 turn out when TTSDYQDSDV was run?
A: The IC50 was 11.9 µM.

Q: Which IC50 does the source give for HIHKILTREM here?
A: Its IC50 is 16.2 µM.

Q: How did the IC50 turn out when EQEIESLEAT was run?
A: The IC50 was 42.7 µM.

Q: For LVATDPDADA, which IC50 is on record?
A: The IC50 was ≥ 70 µM.

Q: PTELKETLL was tested. Which IC50 did it give?
A: The IC50 was ≥ 70 µM.

Q: With CIEYVTLNA as the sequence, how does the IC50 read?
A: The IC50 was 11.1 µM.

Q: With NTSLEIEFT as the sequence, how does the IC50 read?
A: Its IC50 is ≥ 70 µM.

Q: How did the IC50 turn out when IVALTIMGVI was run?
A: The IC50 was 5.77 µM.

Q: For HMLKLQARNI, which IC50 is on record?
A: Its IC50 is 24 µM.

Q: EQTSVFSAT was tested. Which IC50 did it give?
A: Its IC50 is 16.9 µM.

Q: With IQESFIRFT as the sequence, how does the IC50 read?
A: Its IC50 is 36.2 µM.

Q: With IIRYPVKRI as the sequence, how does the IC50 read?
A: Its IC50 is 10.1 µM.

Q: For SVVTLLCVL, which IC50 is on record?
A: Its IC50 is 14.7 µM.

Q: With IQAKTKNFT as the sequence, how does the IC50 read?
A: The IC50 was ≥ 70 µM.

Q: ELMPIRTDT was tested. Which IC50 did it give?
A: Its IC50 is ≥ 70 µM.

Q: With KTLDFKSKKV as the sequence, how does the IC50 read?
A: The IC50 was 52.8 µM.

Q: With EIPTRTLDTA as the sequence, how does the IC50 read?
A: Its IC50 is 59 µM.

Q: For DMLNIMNKL, which IC50 is on record?
A: The IC50 was 5.12 µM.

Q: Which IC50 does the source give for KIDKLRQIVA here?
A: Its IC50 is 32.4 µM.

Q: How did the IC50 turn out when LTASGGKVLI was run?
A: The IC50 was ≥ 70 µM.

Q: With EAVKDKNWT as the sequence, how does the IC50 read?
A: Its IC50 is 38.7 µM.

Q: How did the IC50 turn out when KVTINNLKM was run?
A: The IC50 was 5.74 µM.

Q: ETMPCVKKKA was tested. Which IC50 did it give?
A: Its IC50 is ≥ 70 µM.

Q: Which IC50 does the source give for LIKKPYRSI here?
A: The IC50 was 59.4 µM.

Q: IIHTGCSQVM was tested. Which IC50 did it give?
A: The IC50 was 12.4 µM.

Q: For IVEHLRDQSI, which IC50 is on record?
A: The IC50 was ≥ 70 µM.

Q: With NTIDQTANVV as the sequence, how does the IC50 read?
A: Its IC50 is 6.56 µM.

Q: Which IC50 does the source give for LVKWPLLNI here?
A: Its IC50 is 9.21 µM.

Q: SVDCNKELM was tested. Which IC50 did it give?
A: Its IC50 is 11.2 µM.

Q: For SANEAAITDA, which IC50 is on record?
A: The IC50 was 10.2 µM.

Q: AAASSTHRKV was tested. Which IC50 did it give?
A: Its IC50 is ≥ 70 µM.

Q: Which IC50 does the source give for KVDVELFIKA here?
A: The IC50 was 8 µM.

Q: With DIGTVKDGRL as the sequence, how does the IC50 read?
A: Its IC50 is ≥ 70 µM.

Q: How did the IC50 turn out when SVETITEKT was run?
A: Its IC50 is ≥ 70 µM.

Q: ILKPRIDKTM was tested. Which IC50 did it give?
A: Its IC50 is 49.3 µM.

Q: Which IC50 does the source give for LIAFSSGTVI here?
A: The IC50 was 7.63 µM.

Q: TVSTIDGRIV was tested. Which IC50 did it give?
A: The IC50 was ≥ 70 µM.

Q: How did the IC50 turn out when TIKISPGIA was run?
A: The IC50 was 37.4 µM.

Q: With LIANIHNHMI as the sequence, how does the IC50 read?
A: Its IC50 is 5.99 µM.

Q: Which IC50 does the source give for TAASPMLYQL here?
A: The IC50 was ≥ 70 µM.

Q: CTVPTMNNA was tested. Which IC50 did it give?
A: The IC50 was 16.1 µM.

Q: For DVEDLLSYYV, which IC50 is on record?
A: The IC50 was 5.16 µM.

Q: How did the IC50 turn out when TASGGKVLIT was run?
A: The IC50 was ≥ 70 µM.

Q: With MIKERRQITM as the sequence, how does the IC50 read?
A: Its IC50 is 24.9 µM.

Q: For KALSDACKKI, which IC50 is on record?
A: The IC50 was 14.3 µM.

Q: Which IC50 does the source give for GINQEDGIII here?
A: The IC50 was ≥ 70 µM.

Q: IMSLNGKKHT was tested. Which IC50 did it give?
A: Its IC50 is ≥ 70 µM.

Q: Which IC50 does the source give for SMRLLHCVT here?
A: The IC50 was ≥ 70 µM.
